According to the nanobody polyreactivity screen of Harvey et al. (2022):

Assay: yeast display, Sf9 membrane polyspecificity reagent, FACS + sequencing; frameworks hold sequencing errors
Summary of the method: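 Synthetic nanobody libraries on Saccharomyces cerevisiae BJ5465 were galactose-induced for 36–48 hours, stained 1 hour at 4 °C with 10% biotinylated, detergent-solubilized Sf9 membrane reagent and enriched on streptavidin microbeads. FACS then separated cells into low and high (top ~1%) gates by anti-HA (expression) and streptavidin (reagent binding) fluorescence. Genes were colony-PCR amplified, MiSeq 2 × 250 sequenced and CDR-length filtered. A clone's polyreactivity label is that of its gate of origin.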

Row | Sequence | polyreactivity (PSR sort gate)
1 | QVQHVESGGALVQAGGILRLSCAASGYTFYVYAMGWYRQAPGKERELVAAISGGSNTYYADSVKGRFTISRDNGKNTVYLQMNSLKPEDTAVYYCAKSSTTYRQRARYDYWGQGTQVTVSS | high polyreactivity
2 | QVQHVESGGALVQAGGSLRLSCAASGSIFGDYAMGWYRQAPGKERELVAAITSDRDTYYADSVKGRFTISRDNAKNTVYLQMNSLKPEDTAVYYCNATYGGPYFIQYDYWGQGTQVTVSS | low polyreactivity
3 | QVQHVESGGALVQAGGSLRLSCAASGSTFIKYAMGWYRQAPGKERELVAAISRSGASTYYADSVKGRFTLSRDNEKNTVYLQMKSLKPEDTAVYYCAARRRYLDHGYWGQGTQVTVSS | high polyreactivity
4 | QVQHVESGGCLVQAGGILRLSCAASGSIFQSNTMGWYRQAPGKVRELVAYISNGGTTTYANSVKGRFTISRDNAKTTVYLQMNSLKPEDTAVYYCATYYWQYYEYDYWGQGTQVTVSS | low polyreactivity
5 | QVQHVESGGCLVQAGGSLRLSCAASGLIIKSYVMGWYRQAPGKERELVAGITGSGGTTYYADSVKGRFTISRDNAKNTVDLQMNSLKPEDTAVYYCDARSRSRPKYDYWGQGTQVTVSS | high polyreactivity
6 | QVQHVESGGCLVQAGGSLRLSCAASGSIFYRYAMGWYRQGPGKESQLVAAIRRGGSTNYADSVKGRFTISRDNAKYTVSLQMNSLKPEDTAVYYCAAGRFTYAAQSYEYWGQGTQVTVSS | high polyreactivity
7 | QVQHVESGGGIVQAGGSLRLSCPASGSIYRKYAMGWSRQTPGKERELVAAIRSSGGSTYYADSVKGRFTISRDNAKNTVYLQMNSLKPEDTAVYYCASTYYRPSRYDYCGQGTQVTVSS | high polyreactivity
8 | QVQHVESGGGLFKAGGTLRLSCAASGRTIYPYAMVLYIQAPGKESELVAAIRWSGGSTYYADSVKGRFTISRDNSKNTVYLQMNSLKPVDTAVYYCNADWKSYRGPIVDYWGQGTQVSVSS | low polyreactivity
9 | QVQHVESGGGLGQAGGSLRLSCAASGIIFPRYKAWYRPAPGKDRELVAAIRWSSDDTNYADSVKGRFTISRDNAKNTVYLQMNSLKPEDTAVYYCAADSYYDRTIQFEFSARTYDYWVQGTQVTVSS | low polyreactivity
10 | QVQHVESGGGLLQAGGSLRLSCAASGITFFEYAMGWYRQAPGKERELVAVITSVGSTNYADSVKGRFTISRDNAKNTVYLQMNSLKPVDTAVYYCNARLVKYRWWYDYYYWGQGTQVTVSS | low polyreactivity
11 | QVQHVESGGGLVQAAGSLRLICYASGSIFGSYAMGWYRPAPGKERELVAAISSRGSRTYYADSVKGRFTISRDNAKNTVYLQMNSLKPEDTAVYYSNAGALTNYDYWGQGTQVTVSS | high polyreactivity
12 | QVQHVESGGGLVQAAGSLRLSCAASGTIFYWYTMGWYRQARGKERELVATITGSGSSTTYADSVKGRFTISRDNAKNSVYLQMNSLKPEDTAVYYCAKVYYIGIRGEYDYWGQGTQVTVSA | low polyreactivity
13 | QVQHVESGGGLVQAGGNLRLSCPASGRTIYSYTMGWYRQTPGKERELVAAINRSGGRTYYADSVKGRFTISRDNAKNTVYLQMNSLKQEDTAVYYGNALEYYRYDYWGQGTQVTVSS | high polyreactivity
14 | QVQHVESGGGLVQAGGRLSLICSASGGNIKFNAMGWYRQAPGKERELVAAITDGGSTYYADSVKGRFTISRDNAKNTVYLEMNSLKAEDTAVYYCNAEGVSLYGYDSGVDSGEDYWGQGTQVTVSS | low polyreactivity
15 | QVQHVESGGGLVQAGGSLLLSCAASGSIFASYAMGWYRQAPGKEREFVASISRSGGRTYYADSVKGRFTISRDNAKNTVYLQMKSLKPEDTAVYYCAAQPSSYVYYRQPFHYWGQGTQVTVSS | high polyreactivity
16 | QVQHVESGGGLVQAGGSLRLRCAASGFTFGSYAMGWYRQAPGKERELVASISSAGRTYYADSVKGRITISRDNAKNSVYLQMNSLKPEDTAVYYCNTDARVTIYDYDYWGQGTQVTVSS | low polyreactivity

Row | Sequence | polyreactivity (PSR sort gate)
17 | QVQHVESGGGLVQAGGSLRLRCAASGITSRYNDMGWSRQAPGKERELVATITWRGVSTYYADSVKGRFTISRDNAKNTVYVQMNSLKPEDTAVYYCAARRPGYYPYKGFDYWGQGTQVTVSS | high polyreactivity
18 | QVQHVESGGGLVQAGGSLRLRCAASGRTFKKYAMGWYRQAPGKAWELVAAITGSGGSTYYADSVKGRFTFSRDNAKNTVYLQMNRLKPEDTAVYYCAAYAYGVWQSQDGGNYWGQGTQVTVSS | low polyreactivity
19 | QVQHVESGGGLVQAGGSLRLRCAASGSIFVHNDMGWYRQAPGKERDLVAAISSGSSTNYADSVKGRFTISRDNAKNTVFLQMNSLKPEDTAVYYCAVTSPYSHGYSYWGADSRDYWGQGTQVTVSS | low polyreactivity
20 | QVQHVESGGGLVQAGGSLRLSCAASGFIFDFNAMGRYRPPPGKERELVATISSDGSTNYADSVKGRFTISRDNAKNTVYLQMNSLKPEDTAVYYCNKDSHKDAGTLPGWWYDYWGQGTQVTVSS | low polyreactivity
21 | QVQHVESGGGLVQAGGSLRLSCAASGFIFGVYDMGWYRQAPGKERELVAAIDCVGSTYYADSVKGRFTISRDNAKNTVYLQMNSLKPEDTAGYYCNAARSRLYYDKYYYWGQGTQVTVSS | low polyreactivity
22 | QVQHVESGGGLVQAGGSLRLSCAASGFIFRNYAMGWYRQAPGKERELVAAISSRGGSTYYADSVKGRFTISRDNAKNTVYLQMNRLKPEVTAVYYCARRYFYTYGYWGQGSQVTVSS | high polyreactivity
23 | QVQHVESGGGLVQAGGSLRLSCAASGFIFYDKAMGRYRTAPGKERELVAGITYRTGSTFYADSVKGRFTISRDNAKNTVYLQMISLKPEDTAVFYCAAVRRISWYTPVNTRRYYYWGQGTQVTVSS | high polyreactivity
24 | QVQHVESGGGLVQAGGSLRLSCAASGFIFYIYAMGWYRQAPGKERELVAAITSGGSTYYADSVKGRFTISRDNAKNTVYFQMNSLKPEDTAVFYCNRRSGHVHEYDYWGQGTQVTVSS | low polyreactivity
25 | QVQHVESGGGLVQAGGSLRLSCAASGFIFYKYAMGWYRQAPGKERELVAAISKRGGSTYYADSVKGRFTISRDNAKNTVYLQMNSLKPEDTAVYYCATDGGNSATVRYVASDYWGQGTQVTVSS | high polyreactivity
26 | QVQHVESGGGLVQAGGSLRLSCAASGFNFAYNIMGWYRQAPGKERELVADISGTGSTNYADSVKGRFTISRDNAKNTVYLQMNSLKPEDTAVYYCATSGDRLVWGQGTQVTVSS | low polyreactivity
27 | QVQHVESGGGLVQAGGSLRLSCAASGFTFSKYGMGWYRQAPGKERELVAAISGSGGNTYYADSVKGRFTISRDNAKNTVYLQMNSLKPEDTAVYYCNAEGWRYYYWYHEYGYWGQGTQVTVSS | low polyreactivity
28 | QVQHVESGGGLVQAGGSLRLSCAASGFTFYGNALGWYRQAPGKERELVAAITSGGSTYYADSVKGRFTISRDNAKNTVYLQMNSLKPDDTAVYYCAADEVLYGYEYWGQGTQVTVSS | low polyreactivity
29 | QVQHVESGGGLVQAGGSLRLSCAASGFTFYSYVMGWYRQAPGKERELVAAITRGGSTYYADSVKGRFTISRDNAKNTVYLQMTSLKPEDTAVYYCAKRPSYGYNYWGHGTQVTVSS | low polyreactivity
30 | QVQHVESGGGLVQAGGSLRLSCAASGGTFLANAMGWYRQAPGKERELVAAISWRGGSTRYADSVKGRFTISRDNAKNTVYLQMNSLKPEDTAVYYCAARYLYFTGFYYWGQGTQVTVSS | high polyreactivity
31 | QVQHVESGGGLVQAGGSLRLSCAASGIFFFYGMGWYRQAPGKQRQLLAVISTGDTTDYADSVKGRSTISRDNAKNTVYLQMNSLIPEDTAVYYCAATGRSRSYSWSKLNYWGQGTQVTVSS | low polyreactivity
32 | QVQHVESGGGLVQAGGSLRLSCAASGIIFYDKTMGWYRQAPGKERELVASITWRGGSTYYADSVKGRFTISRDNAKNTVYLQMNSLKPEDTAVYYCNADSSDDYDYWGQGTQVTVSS | low polyreactivity
